{"source": "patent US20240025997A1", "about": "(NGM BIOPHARMACEUTICALS, published 2024)", "binders": {"B1": {"name": "humanized anti-ILT2/ILT4 antibody Hz73D1.v1 (antibody, human IgG1, kappa, N297G, V domains shown)", "VH": "QVQLVQSGAEVKKPGASVKVSCKASGYTFTDYYINWVRQAPGQGLEWMGNVNPNDGGTTYNQKFKGRVTMTTDTSTSTAYMELRSLRSDDTAVYYCARREIYFYGTIYYYAMDYWGQGTLVTVSS", "VL": "DIQLTQSPSFLSASVGDRVTITCRASESVDYYGNSFMYWYQQKPGKAPKLLIYFASNLESGVPSRFSGSGSGTEFTLTISSLQPEDFATYYCQQNNEDPWTFGGGTKVEIKR", "notes": "Human IgG1 constant region with G at position 297, human kappa; also called Hz73D1.vi"}}, "key": {"[1]": {"target": "T1, human ILT4 on cells (human, UniProt Q8N423 22-597)", "T1 sequence (Q8N423 other isoform, or with tags, fused parts or gaps)": "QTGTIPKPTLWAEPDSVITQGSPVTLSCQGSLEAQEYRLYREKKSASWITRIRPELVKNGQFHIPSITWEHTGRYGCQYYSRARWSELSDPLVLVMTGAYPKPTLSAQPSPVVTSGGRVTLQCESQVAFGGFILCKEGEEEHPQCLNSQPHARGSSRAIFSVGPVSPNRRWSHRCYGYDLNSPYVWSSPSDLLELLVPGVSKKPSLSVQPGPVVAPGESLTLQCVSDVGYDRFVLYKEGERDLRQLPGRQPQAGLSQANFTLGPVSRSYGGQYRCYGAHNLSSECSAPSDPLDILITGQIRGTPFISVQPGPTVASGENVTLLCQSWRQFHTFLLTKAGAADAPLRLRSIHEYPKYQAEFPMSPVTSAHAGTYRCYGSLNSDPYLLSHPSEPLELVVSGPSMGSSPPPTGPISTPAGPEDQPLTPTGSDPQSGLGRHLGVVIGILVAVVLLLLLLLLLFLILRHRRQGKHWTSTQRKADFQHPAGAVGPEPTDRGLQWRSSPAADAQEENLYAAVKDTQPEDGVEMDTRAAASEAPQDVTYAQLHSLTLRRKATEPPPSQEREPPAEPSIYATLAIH", "assay": "cell-based or functional assay"}, "[2]": {"target": "T2, soluble human ILT2-ECD (human, UniProt Q8NHL6 24-461)", "T2 construct": "also called LILRB1 extracellular domain", "T2 sequence (Q8NHL6 24-461)": "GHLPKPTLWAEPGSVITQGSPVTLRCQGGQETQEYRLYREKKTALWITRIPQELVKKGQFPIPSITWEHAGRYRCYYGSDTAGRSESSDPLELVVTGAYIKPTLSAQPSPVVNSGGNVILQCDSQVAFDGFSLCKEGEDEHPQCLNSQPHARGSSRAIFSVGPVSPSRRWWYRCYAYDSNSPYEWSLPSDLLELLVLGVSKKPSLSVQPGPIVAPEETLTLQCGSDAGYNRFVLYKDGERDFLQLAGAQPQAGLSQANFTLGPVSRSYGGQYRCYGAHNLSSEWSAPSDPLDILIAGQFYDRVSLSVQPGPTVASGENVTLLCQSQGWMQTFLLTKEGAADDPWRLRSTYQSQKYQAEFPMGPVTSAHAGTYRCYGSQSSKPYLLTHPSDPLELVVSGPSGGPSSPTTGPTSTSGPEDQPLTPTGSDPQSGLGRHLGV", "assay": "SPR (Biacore), antibody captured on Protein A chip, ILT protein injected, 25 C"}, "[3]": {"target": "T3, soluble human ILT4-ECD (human, UniProt Q8N423 22-460)", "T3 construct": "also called LILRB2 extracellular domain", "T3 sequence (Q8N423 other isoform, or with tags, fused parts or gaps)": "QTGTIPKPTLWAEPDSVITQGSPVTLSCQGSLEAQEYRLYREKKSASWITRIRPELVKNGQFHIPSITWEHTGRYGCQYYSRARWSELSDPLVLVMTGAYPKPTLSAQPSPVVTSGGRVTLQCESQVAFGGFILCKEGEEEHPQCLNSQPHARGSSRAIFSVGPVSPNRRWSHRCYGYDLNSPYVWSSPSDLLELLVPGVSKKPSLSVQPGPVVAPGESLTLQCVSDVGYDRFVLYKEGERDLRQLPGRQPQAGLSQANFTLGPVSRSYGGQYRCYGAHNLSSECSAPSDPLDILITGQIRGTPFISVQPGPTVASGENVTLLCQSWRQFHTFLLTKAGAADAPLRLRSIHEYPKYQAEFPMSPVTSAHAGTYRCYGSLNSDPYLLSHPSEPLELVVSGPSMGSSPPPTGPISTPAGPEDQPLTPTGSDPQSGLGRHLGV", "assay": "SPR (Biacore), antibody captured on Protein A chip, ILT protein injected, 25 C"}, "[4]": {"target": "T1, human ILT4 on cells", "assay": "cell-based or functional assay", "remark": "listed apart in the source"}, "[5]": {"target": "human ILT2 on cells (human, UniProt Q8NHL6 24-650)", "sequence (Q8NHL6 24-650)": "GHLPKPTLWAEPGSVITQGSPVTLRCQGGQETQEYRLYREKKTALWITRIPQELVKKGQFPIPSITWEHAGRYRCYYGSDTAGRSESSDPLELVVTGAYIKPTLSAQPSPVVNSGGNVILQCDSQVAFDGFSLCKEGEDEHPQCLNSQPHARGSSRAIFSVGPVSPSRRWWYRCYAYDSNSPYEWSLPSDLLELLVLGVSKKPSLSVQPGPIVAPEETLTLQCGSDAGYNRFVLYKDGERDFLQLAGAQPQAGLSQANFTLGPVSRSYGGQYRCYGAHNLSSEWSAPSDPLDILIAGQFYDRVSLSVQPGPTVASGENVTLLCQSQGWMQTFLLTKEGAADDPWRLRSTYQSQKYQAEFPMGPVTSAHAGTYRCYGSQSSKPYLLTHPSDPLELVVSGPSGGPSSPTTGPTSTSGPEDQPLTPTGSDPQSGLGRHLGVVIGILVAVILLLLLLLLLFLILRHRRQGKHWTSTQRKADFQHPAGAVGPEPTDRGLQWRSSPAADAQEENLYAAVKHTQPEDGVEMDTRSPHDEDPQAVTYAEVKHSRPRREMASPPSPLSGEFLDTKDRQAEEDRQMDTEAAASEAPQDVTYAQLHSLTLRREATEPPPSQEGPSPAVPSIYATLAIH", "assay": "cell-based or functional assay"}, "[6]": {"target": "Human ILT4-Fc (human, UniProt Q8N423 22-460)", "assay": "SPR (Biacore) competition: blocking of human ILT4-Fc binding to HLA-A, 25 C", "procedure": "(§1) In addition to the reporter cell system, the inhibitory activity of anti-ILT2/ILT4 antibodies towards the interaction between ILT2 and MHC I molecules, and the interaction between ILT4 and MHC I molecules was evaluated using the Biacore system. Human ILT2-Fc and ILT4-Fc were used as target receptors and their interaction with an exemplary MHC-I molecule (HLA-A) was assayed in the presence or absence of an exemplary anti-ILT2/ILT4 antibody Hz73D1.v1 at 25° C. Anti-human ILT2 (clone 27F9) or ILT4 (clone 48A5) antibodies were used as tool reagents to dissect ILT2- and ILT4-specific blocking activities. Anti-IL2/ILT4 antibodies produced a dose-dependent reduction in the interaction between ILT2 and HLA-A, as well as between ILT4 and HLA-A. IC50s of the antibodies tested are shown in Table 16."}, "[7]": {"target": "Human ILT2-Fc (human, UniProt Q8NHL6 24-461, limits assumed)", "sequence (Q8NHL6 24-461 limits assumed)": "as the sequence (Q8NHL6 24-461) above", "assay": "SPR (Biacore) competition: blocking of human ILT2-Fc binding to HLA-A, 25 C", "procedure": "as §1"}, "[8]": {"target": "T3, soluble human ILT4-ECD", "assay": "Biacore competition: antibody titrated against 20 nM ILT4-ECD, mixture injected over biotinylated HLA-A*1101 on a NeutrAvidin chip; blocked ligand HLA-A*1101", "procedure": "(§2) As part of the characterization process, the ability of exemplary antibodies to inhibit or block the interaction of ILT2 or ILT4 with their natural ligands was evaluated in competition experiments using a Biacore system. As described herein, the natural ligands of ILT2 and ILT4 include, but are not limited to, HLA class I molecules, including HLA-A, HLA-B, HLA-C, HLA-E, and HLA-G. Biotinylated HLA-A*1101 was captured in high amounts on a NeutrAvidin chip surface. Antigen-antibody complexes were prepared with (i) ILT2-ECD and anti-ILT2 antibody 27F9, anti-ILT4 antibody 48A5, or anti-ILT2/ILT4 antibody Hz73D1.v1 and (ii) ILT4-ECD and anti-ILT2 antibody 27F9, anti-ILT4 antibody 48A5, or anti-ILT2/ILT4 antibody Hz73D1.v1. The antibody concentration of each antibody was titrated from 0.09-100 nM and the concentration of human ILT2-ECD or ILT4-ECD was kept constant at 20 nM. The complexes were mixed in a 96-well microplate and each was injected onto the HLA-A-coated chip surface. The measured signal (response unit, RU) was plotted against the antibody concentration."}, "[9]": {"target": "T2, soluble human ILT2-ECD", "assay": "SPR (Biacore) as described in Example 3", "procedure": "(§3) The binding affinities of anti-ILT2 and anti-ILT4 antibodies were measured using a Biacore system (GE Healthcare LifeSciences). Equilibrium dissociation constant (KD) measurements were carried out with purified antibodies to evaluate their binding to human ILT2, human ILT4, and rhesus ILT2. Briefly, purified anti-ILT2 antibody 27F9, anti-ILT4 antibodies 47C8 and 48A5, and anti-ILT2/ILT4 antibodies 47H6, 51A1, 64A12, 73C4, and 73D1 were captured on a Sensor Chip Protein A (GE HealthCare). The surface of the Biacore Sensor Chip Protein A consists of a carboxymethylated dextran matrix with a recombinant Protein A variant covalently attached. Soluble human ILT2-ECD, human ILT4-ECD, or rhesus ILT2-ECD were injected at a flow rate of 30 μL/min at 25° C. The ILT2 or ILT4 proteins were used at concentrations ranging from 1.6-200 nM in PBS-P buffer with 2 fold dilutions. Kinetic data were collected over time and fit using the simultaneous global fit equation to yield affinity constants (KD values) for each antibody.\n(§4) The binding affinities of the humanized antibodies to human ILT2 and human ILT4 were measured using a Biacore system as described herein. The binding affinities of antibodies Hz47H6.v2, Hz64A12, and Hz73D1.v1 are shown in Table 11 as compared with the parental antibodies."}, "[10]": {"target": "T3, soluble human ILT4-ECD", "assay": "SPR (Biacore) as described in Example 3", "procedure": "as §3, §4"}, "[11]": {"target": "T4, cynomolgus monkey ILT2 on cells (cynomolgus monkey)", "T4 construct": "also called cyno ILT2; ILT2 on cyno CD14+ monocytes", "T4 sequence (chain, as listed by the source)": "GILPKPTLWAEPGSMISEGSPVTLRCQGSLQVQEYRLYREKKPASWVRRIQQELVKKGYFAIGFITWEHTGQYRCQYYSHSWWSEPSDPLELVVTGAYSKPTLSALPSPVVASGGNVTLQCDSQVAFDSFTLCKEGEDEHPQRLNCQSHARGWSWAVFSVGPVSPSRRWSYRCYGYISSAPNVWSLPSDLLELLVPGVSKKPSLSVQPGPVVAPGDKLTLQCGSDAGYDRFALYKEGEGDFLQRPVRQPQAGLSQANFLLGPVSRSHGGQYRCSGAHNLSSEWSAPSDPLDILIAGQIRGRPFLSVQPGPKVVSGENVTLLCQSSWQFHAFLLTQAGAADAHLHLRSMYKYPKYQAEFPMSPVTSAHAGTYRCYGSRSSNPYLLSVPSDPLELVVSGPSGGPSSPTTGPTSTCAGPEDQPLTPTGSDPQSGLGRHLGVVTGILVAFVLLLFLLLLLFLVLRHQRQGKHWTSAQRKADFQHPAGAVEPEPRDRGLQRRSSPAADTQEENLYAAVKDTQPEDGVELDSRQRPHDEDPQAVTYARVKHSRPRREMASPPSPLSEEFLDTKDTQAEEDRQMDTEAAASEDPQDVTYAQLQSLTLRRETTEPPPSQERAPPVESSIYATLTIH", "assay": "flow cytometry, fluorescently labelled antibody on CD14+ monocytes of cyno PBMC (2 donors), geometric MFI", "procedure": "The binding of anti-ILT2/ILT4 antibodies to monocytes was evaluated. The binding of exemplary anti-ILT2/ILT4 antibody 73D1 and the humanized version Hz73D1.v1 to the CD14+ monocyte population of human and cyno PBMC were determined by flow cytometry analysis. Briefly, human or cyno PBMCs (from 2 donors each) were thawed, washed in media (RPMI, 10% FBS, L-glutamine, pen/strep), and resuspended in fresh media. PBMCs were stained with a cocktail of labeled antibodies to differentiate between the different cell types. 1×10⁶ cells/well were stained with fluorescently-labelled 73D1 or Hz73D1.v1 antibody and incubated on ice. The cells were washed with ice-cold reagents and immediately analyzed by flow cytometry. The geometric mean fluorescence intensity for CD14+ monocytes was calculated for each sample. […] For example, the 50% effective concentration (EC₅₀) of Hz73D1.v1 was 8.8 nM with human monocytes and 1.8 nM with cyno monocytes."}, "[12]": {"target": "T2, soluble human ILT2-ECD", "assay": "Biacore competition: antibody titrated against 20 nM ILT2-ECD, mixture injected over biotinylated HLA-A*1101 on a NeutrAvidin chip; blocked ligand HLA-A*1101", "procedure": "as §2"}}, "data": [{"binder": "B1", "values": [{"measurement": "EC50 (nM), TNFalpha secretion of tolerized dendritic cells, LPS + Cyclosporine", "setting": "[1]", "value": 0.2, "unit": "nM"}, {"measurement": "EC50 (nM), TNFalpha secretion of tolerized dendritic cells, LPS + IL-6", "setting": "[1]", "value": 0.14, "unit": "nM"}, {"measurement": "EC50 (nM), TNFalpha secretion of tolerized dendritic cells, LPS + IL-10", "setting": "[1]", "value": 1.2, "unit": "nM"}, {"measurement": "EC50 (nM), TNFalpha secretion of tolerized dendritic cells, LPS + PGE2", "setting": "[1]", "value": 0.44, "unit": "nM"}, {"measurement": "EC50 (nM), TNFalpha secretion of tolerized dendritic cells, LPS + Rapamycin", "setting": "[1]", "value": 0.15, "unit": "nM"}, {"measurement": "EC50 (nM), TNFalpha secretion of tolerized dendritic cells, LPS + TGFβ", "setting": "[1]", "value": 0.1, "unit": "nM"}, {"measurement": "EC50 (nM), TNFalpha secretion of tolerized dendritic cells, LPS + VitD3/Dex", "setting": "[1]", "value": 0.4, "unit": "nM"}, {"measurement": "Kd", "setting": "[2]", "value": 1.03, "unit": "nM"}, {"measurement": "koff", "setting": "[2]", "value": "4.85e-05", "unit": "s⁻¹"}, {"measurement": "kon", "setting": "[2]", "value": 47200, "unit": "M⁻¹ s⁻¹"}, {"measurement": "Kd", "setting": "[3]", "value": 0.205, "unit": "nM"}, {"measurement": "koff", "setting": "[3]", "value": "4.6e-05", "unit": "s⁻¹"}, {"measurement": "kon", "setting": "[3]", "value": 220000, "unit": "M⁻¹ s⁻¹"}, {"measurement": "EC50, GM-CSF secretion of LPS-stimulated human PBMC", "setting": "[4]", "value": 1.5, "unit": "nM"}, {"measurement": "EC50, TNFalpha secretion of LPS-stimulated human PBMC", "setting": "[4]", "value": 0.76, "unit": "nM"}, {"measurement": "EC50, NKL cytolytic activity against 721.221-HLA-A*0201 target cells", "setting": "[5]", "value": 0.13, "unit": "nM"}, {"measurement": "EC50, NKL cytolytic activity against 721.221-HLA-G target cells", "setting": "[5]", "value": 2.4, "unit": "nM"}, {"measurement": "percent CD137+ NK cells, ADCC assay with CAL-27 cells and anti-EGFR antibody", "setting": "[5]", "value": 1.8, "unit": "fold"}, {"measurement": "IC50", "setting": "[6]", "value": 9.4, "unit": "nM"}, {"measurement": "IC50", "setting": "[7]", "value": 10, "unit": "nM"}, {"measurement": "IC50 (read off the curve)", "setting": "[8]", "value": "~9", "unit": "nM"}, {"measurement": "Kd", "setting": "[9]", "value": 3, "unit": "nM"}, {"measurement": "koff", "setting": "[9]", "value": 0.00025, "unit": "s⁻¹"}, {"measurement": "kon", "setting": "[9]", "value": 85000, "unit": "M⁻¹ s⁻¹"}, {"measurement": "Kd", "setting": "[10]", "value": 0.75, "unit": "nM"}, {"measurement": "koff", "setting": "[10]", "value": 0.00027, "unit": "s⁻¹"}, {"measurement": "kon", "setting": "[10]", "value": 360000, "unit": "M⁻¹ s⁻¹"}, {"measurement": "binding result", "setting": "[11]", "value": "binds"}, {"measurement": "IC50 (read off the curve)", "setting": "[12]", "value": "~9", "unit": "nM"}]}]}
